The test system of the data set is Escherichia coli TOP10. The data set can be described thus: shrunken log2 fold change of peptide-encoding DNA abundance (4.5 h post-induction vs induction); higher = less antimicrobial activity (less host growth inhibition). As to conditions: time post-induction: 4.5 h; library: site-saturation at positions 5, 18, 19, 20.
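Further: peptides expressed intracellularly from a pBAD plasmid library in pooled LB shake-flask culture, induced with 0.3% L-arabinose, DNA abundance read by NGS, three biological replicates, DESeq2 with apeglm shrinkage.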

For RRIRHRPPRLPRPRPRPVGAPRP, the “shrunken log2 fold change” value came out at 3.01.
Turning to RRIRHRPPRLPRPRPRPLNPPRP, the “shrunken log2 fold change” value is -0.204.
For RRIRNRPPRLPRPRPRPEIFPRP, the “shrunken log2 fold change” value was -0.0153.
The figure for RRIRHRPPRLPRPRPRPKCNPRP is -0.00178.
The figure for RRIRCRPPRLPRPRPRPVIFPRP is -0.408; for RRIRYRPPRLPRPRPRPHGLPRP it is 0.0126.
As for RRIRGRPPRLPRPRPRPYINPRP, the “shrunken log2 fold change” value is -0.151.
With RRIRFRPPRLPRPRPRPCMCPRP, the “shrunken log2 fold change” value was -0.544.
For the sequence RRIRTRPPRLPRPRPRPALQPRP, the “shrunken log2 fold change” value was 0.278.
Turning to RRIRVRPPRLPRPRPRPVSVPRP, the “shrunken log2 fold change” value worked out at 0.0195.
With RRIRWRPPRLPRPRPRPRHWPRP, the “shrunken log2 fold change” value was determined as 0.0523.
RRIRFRPPRLPRPRPRPMKSPRP: the “shrunken log2 fold change” value was -0.198.
Turning to RRIRGRPPRLPRPRPRPNYFPRP, the “shrunken log2 fold change” value came out at 0.0394.
For the sequence RRIRKRPPRLPRPRPRPMFTPRP, the “shrunken log2 fold change” value is -0.0707.
On to RRIRLRPPRLPRPRPRPKGQPRP, for which the “shrunken log2 fold change” value was -0.11.
With RRIRKRPPRLPRPRPRPAWIPRP, the “shrunken log2 fold change” value amounted to 0.0453.
Turning to RRIRMRPPRLPRPRPRPEWPPRP, the “shrunken log2 fold change” value came to 0.0994.
Consider RRIRARPPRLPRPRPRPHPCPRP, for which the “shrunken log2 fold change” value was 0.206.
As for RRIRYRPPRLPRPRPRPRQFPRP, the “shrunken log2 fold change” value is -0.379.
With RRIRMRPPRLPRPRPRPSIVPRP, the “shrunken log2 fold change” value was -0.106.
The value for RRIRNRPPRLPRPRPRPATTPRP was 0.272; that for RRIRHRPPRLPRPRPRPRPMPRP was -0.00237.
With RRIRRRPPRLPRPRPRPRGFPRP, the “shrunken log2 fold change” value was determined as 0.131.
Turning to RRIRLRPPRLPRPRPRPVTAPRP, the “shrunken log2 fold change” value stood at 0.213.
For the sequence RRIRCRPPRLPRPRPRPESTPRP, the “shrunken log2 fold change” value turned out to be 0.0373.
On to RRIRRRPPRLPRPRPRPLYRPRP, for which the “shrunken log2 fold change” value is -0.121.
With RRIRQRPPRLPRPRPRPGCWPRP, the “shrunken log2 fold change” value amounted to 0.548.
For the sequence RRIRMRPPRLPRPRPRPAVCPRP, the “shrunken log2 fold change” value stood at 0.103.
Consider RRIRMRPPRLPRPRPRPMWFPRP, for which the “shrunken log2 fold change” value turned out to be 0.233.
As for RRIRQRPPRLPRPRPRPHKCPRP, the “shrunken log2 fold change” value was -0.364.
The value for RRIRPRPPRLPRPRPRPNFWPRP was 0.153; that for RRIRLRPPRLPRPRPRPLYWPRP was -0.372; that for RRIRCRPPRLPRPRPRPMEPPRP was 0.0774.
For RRIRHRPPRLPRPRPRPYLHPRP, the “shrunken log2 fold change” value is -0.175.
Consider RRIRARPPRLPRPRPRPTLHPRP, for which the “shrunken log2 fold change” value amounted to 0.584.
RRIRHRPPRLPRPRPRPMCIPRP: the “shrunken log2 fold change” value is -0.162.
In the case of RRIRNRPPRLPRPRPRPEGIPRP, the “shrunken log2 fold change” value is 0.0204.
Take RRIRRRPPRLPRPRPRPGGGPRP: the “shrunken log2 fold change” value came out at 0.841.
In the case of RRIRTRPPRLPRPRPRPAQFPRP, the “shrunken log2 fold change” value is -0.0946.
As for RRIRRRPPRLPRPRPRPECIPRP, the “shrunken log2 fold change” value worked out at 0.282.
As for RRIRYRPPRLPRPRPRPSQIPRP, the “shrunken log2 fold change” value is -0.766.
On to RRIRGRPPRLPRPRPRPFYHPRP, for which the “shrunken log2 fold change” value is -0.102.
The value for RRIRARPPRLPRPRPRPYMVPRP was -0.583; that for RRIRWRPPRLPRPRPRPFNRPRP was -0.0167; that for RRIRIRPPRLPRPRPRPMQAPRP was -0.00238.
As to RRIRARPPRLPRPRPRPYELPRP, the “shrunken log2 fold change” value was -0.101.
The figure for RRIRTRPPRLPRPRPRPTQVPRP is 0.131; for RRIRARPPRLPRPRPRPHLKPRP it is 0.01.
Turning to RRIRARPPRLPRPRPRPKPMPRP, the “shrunken log2 fold change” value stood at 0.831.
As for RRIRWRPPRLPRPRPRPTGQPRP, the “shrunken log2 fold change” value was -0.0283.
As for RRIRFRPPRLPRPRPRPKAFPRP, the “shrunken log2 fold change” value was 0.133.
The figure for RRIRIRPPRLPRPRPRPKTMPRP is -0.198.
Turning to RRIRTRPPRLPRPRPRPLKWPRP, the “shrunken log2 fold change” value was -0.205.
Consider RRIRCRPPRLPRPRPRPRMRPRP, for which the “shrunken log2 fold change” value was found to be 0.542.
Consider RRIRGRPPRLPRPRPRPMSTPRP, for which the “shrunken log2 fold change” value stood at 0.44.
Turning to RRIRKRPPRLPRPRPRPTIQPRP, the “shrunken log2 fold change” value is -0.0129.
Turning to RRIRCRPPRLPRPRPRPDTYPRP, the “shrunken log2 fold change” value is -0.075.
The value for RRIRFRPPRLPRPRPRPYTAPRP was -1.07.
With RRIRKRPPRLPRPRPRPQQFPRP, the “shrunken log2 fold change” value is -0.0324.
For the sequence RRIRKRPPRLPRPRPRPYYCPRP, the “shrunken log2 fold change” value was 0.32.
Regarding RRIRHRPPRLPRPRPRPHRHPRP, the “shrunken log2 fold change” value was -0.2.
Take RRIRERPPRLPRPRPRPPHQPRP: the “shrunken log2 fold change” value was -0.0506.
Take RRIRTRPPRLPRPRPRPYFWPRP: the “shrunken log2 fold change” value is -0.299.
The figure for RRIRGRPPRLPRPRPRPIALPRP is 0.16; for RRIRSRPPRLPRPRPRPQADPRP it is -0.0788; for RRIRDRPPRLPRPRPRPMTEPRP it is 0.0462.
As to RRIRYRPPRLPRPRPRPGWHPRP, the “shrunken log2 fold change” value turned out to be 0.00731.
For RRIRWRPPRLPRPRPRPPQVPRP, the “shrunken log2 fold change” value was 0.35.
For the sequence RRIRNRPPRLPRPRPRPHCYPRP, the “shrunken log2 fold change” value came to 0.0691.
For the sequence RRIRHRPPRLPRPRPRPTFVPRP, the “shrunken log2 fold change” value was -0.152.
With RRIRERPPRLPRPRPRPSWSPRP, the “shrunken log2 fold change” value is -0.0285.
The figure for RRIRYRPPRLPRPRPRPIYAPRP is -0.461; for RRIRDRPPRLPRPRPRPHYKPRP it is -0.297; for RRIRERPPRLPRPRPRPRALPRP it is 0.0317.
Take RRIRRRPPRLPRPRPRPEKYPRP: the “shrunken log2 fold change” value was determined as 0.135.
For the sequence RRIRNRPPRLPRPRPRPIRTPRP, the “shrunken log2 fold change” value was -0.176.
Take RRIRDRPPRLPRPRPRPAHPPRP: the “shrunken log2 fold change” value was -0.203.
Take RRIRERPPRLPRPRPRPDYMPRP: the “shrunken log2 fold change” value worked out at 0.0229.
With RRIRGRPPRLPRPRPRPEGTPRP, the “shrunken log2 fold change” value worked out at 1.55.
Consider RRIRQRPPRLPRPRPRPDIKPRP, for which the “shrunken log2 fold change” value was -0.0227.
RRIRIRPPRLPRPRPRPHMDPRP: the “shrunken log2 fold change” value is -0.103.
The value for RRIRFRPPRLPRPRPRPAGNPRP was 0.135.
The value for RRIRNRPPRLPRPRPRPSCMPRP was -0.755; that for RRIRYRPPRLPRPRPRPISVPRP was -0.534.
Take RRIRHRPPRLPRPRPRPWVGPRP: the “shrunken log2 fold change” value came to 0.0323.
With RRIRPRPPRLPRPRPRPESWPRP, the “shrunken log2 fold change” value was 1.54.
For RRIRPRPPRLPRPRPRPDQAPRP, the “shrunken log2 fold change” value was -0.0505.
Regarding RRIRPRPPRLPRPRPRPTEVPRP, the “shrunken log2 fold change” value was -0.342.
On to RRIRSRPPRLPRPRPRPKYQPRP, for which the “shrunken log2 fold change” value is -0.157.
For the sequence RRIRIRPPRLPRPRPRPLDLPRP, the “shrunken log2 fold change” value was -0.415.
Take RRIRSRPPRLPRPRPRPAGLPRP: the “shrunken log2 fold change” value was -0.0231.
The value for RRIRWRPPRLPRPRPRPCKKPRP was 0.0155.
For the sequence RRIRLRPPRLPRPRPRPEFYPRP, the “shrunken log2 fold change” value came to 0.0488.
Regarding RRIRCRPPRLPRPRPRPTPCPRP, the “shrunken log2 fold change” value came to 0.281.
Turning to RRIRSRPPRLPRPRPRPMQGPRP, the “shrunken log2 fold change” value was -0.181.
As to RRIRNRPPRLPRPRPRPAVAPRP, the “shrunken log2 fold change” value was 0.339.
Turning to RRIRNRPPRLPRPRPRPLEQPRP, the “shrunken log2 fold change” value is -0.166.
As to RRIRVRPPRLPRPRPRPYLQPRP, the “shrunken log2 fold change” value was -0.946.
Consider RRIRARPPRLPRPRPRPCEYPRP, for which the “shrunken log2 fold change” value was -0.133.
The figure for RRIRMRPPRLPRPRPRPYNPPRP is -0.21; for RRIRGRPPRLPRPRPRPEEPPRP it is 0.106; for RRIRKRPPRLPRPRPRPQKEPRP it is -0.00503.
The figure for RRIRYRPPRLPRPRPRPDACPRP is -0.045; for RRIRRRPPRLPRPRPRPDNWPRP it is 0.000556; for RRIRARPPRLPRPRPRPVKTPRP it is 0.232.
Consider RRIRWRPPRLPRPRPRPVFPPRP, for which the “shrunken log2 fold change” value stood at 0.268.
Turning to RRIRRRPPRLPRPRPRPSMCPRP, the “shrunken log2 fold change” value is 0.008.
The figure for RRIRDRPPRLPRPRPRPAKEPRP is 0.0263.
Turning to RRIRFRPPRLPRPRPRPNNEPRP, the “shrunken log2 fold change” value was -0.265.
The figure for RRIRFRPPRLPRPRPRPFKSPRP is 0.0901.
With RRIRSRPPRLPRPRPRPLQLPRP, the “shrunken log2 fold change” value is -0.456.
Turning to RRIRMRPPRLPRPRPRPQFTPRP, the “shrunken log2 fold change” value is 0.095.
In the case of RRIRERPPRLPRPRPRPCPYPRP, the “shrunken log2 fold change” value was -0.367.
RRIRVRPPRLPRPRPRPANWPRP: the “shrunken log2 fold change” value came to 0.224.
For RRIRGRPPRLPRPRPRPVSMPRP, the “shrunken log2 fold change” value was 0.401.
In the case of RRIRKRPPRLPRPRPRPRSGPRP, the “shrunken log2 fold change” value amounted to 0.183.
RRIRQRPPRLPRPRPRPTFVPRP: the “shrunken log2 fold change” value is -0.692.
Consider RRIRVRPPRLPRPRPRPMMDPRP, for which the “shrunken log2 fold change” value was -0.154.
Turning to RRIRFRPPRLPRPRPRPHCHPRP, the “shrunken log2 fold change” value is -0.59.
Turning to RRIRFRPPRLPRPRPRPSWKPRP, the “shrunken log2 fold change” value was found to be 0.206.
The value for RRIRNRPPRLPRPRPRPEPKPRP was 0.0124; that for RRIRPRPPRLPRPRPRPNAQPRP was 0.0626.
For RRIRSRPPRLPRPRPRPMHRPRP, the “shrunken log2 fold change” value is 0.0682.
Consider RRIRWRPPRLPRPRPRPIFFPRP, for which the “shrunken log2 fold change” value was determined as 0.125.
In the case of RRIRGRPPRLPRPRPRPQEWPRP, the “shrunken log2 fold change” value was 0.12.

(Values after the supplement of paper PMC9112550, “Optimization of the antimicrobial peptide Bac7 by deep mutational scanning” (BMC Biology, 2022).)
